According to patent US20240368668A1, “SUBSTRATES AND BIOMARKERS OF ADAMTS7” (The Broad Institute, Inc., priority 2021, published 2024):

Target: T1, mouse ADAMTS7 (Mus musculus, UniProt Q68SA9)
T1 construct: Full-length mouse Adamts7 1-1857 (Uniprot Q68SA9, WT or E373Q catalytic mutant); expressed in transfected cells; host or cells: Human Coronary Artery Smooth Muscle Cells (HCA-SMC, Lonza), adenovirus 50 MOI
T1 sequence (Q68SA9 221-1657): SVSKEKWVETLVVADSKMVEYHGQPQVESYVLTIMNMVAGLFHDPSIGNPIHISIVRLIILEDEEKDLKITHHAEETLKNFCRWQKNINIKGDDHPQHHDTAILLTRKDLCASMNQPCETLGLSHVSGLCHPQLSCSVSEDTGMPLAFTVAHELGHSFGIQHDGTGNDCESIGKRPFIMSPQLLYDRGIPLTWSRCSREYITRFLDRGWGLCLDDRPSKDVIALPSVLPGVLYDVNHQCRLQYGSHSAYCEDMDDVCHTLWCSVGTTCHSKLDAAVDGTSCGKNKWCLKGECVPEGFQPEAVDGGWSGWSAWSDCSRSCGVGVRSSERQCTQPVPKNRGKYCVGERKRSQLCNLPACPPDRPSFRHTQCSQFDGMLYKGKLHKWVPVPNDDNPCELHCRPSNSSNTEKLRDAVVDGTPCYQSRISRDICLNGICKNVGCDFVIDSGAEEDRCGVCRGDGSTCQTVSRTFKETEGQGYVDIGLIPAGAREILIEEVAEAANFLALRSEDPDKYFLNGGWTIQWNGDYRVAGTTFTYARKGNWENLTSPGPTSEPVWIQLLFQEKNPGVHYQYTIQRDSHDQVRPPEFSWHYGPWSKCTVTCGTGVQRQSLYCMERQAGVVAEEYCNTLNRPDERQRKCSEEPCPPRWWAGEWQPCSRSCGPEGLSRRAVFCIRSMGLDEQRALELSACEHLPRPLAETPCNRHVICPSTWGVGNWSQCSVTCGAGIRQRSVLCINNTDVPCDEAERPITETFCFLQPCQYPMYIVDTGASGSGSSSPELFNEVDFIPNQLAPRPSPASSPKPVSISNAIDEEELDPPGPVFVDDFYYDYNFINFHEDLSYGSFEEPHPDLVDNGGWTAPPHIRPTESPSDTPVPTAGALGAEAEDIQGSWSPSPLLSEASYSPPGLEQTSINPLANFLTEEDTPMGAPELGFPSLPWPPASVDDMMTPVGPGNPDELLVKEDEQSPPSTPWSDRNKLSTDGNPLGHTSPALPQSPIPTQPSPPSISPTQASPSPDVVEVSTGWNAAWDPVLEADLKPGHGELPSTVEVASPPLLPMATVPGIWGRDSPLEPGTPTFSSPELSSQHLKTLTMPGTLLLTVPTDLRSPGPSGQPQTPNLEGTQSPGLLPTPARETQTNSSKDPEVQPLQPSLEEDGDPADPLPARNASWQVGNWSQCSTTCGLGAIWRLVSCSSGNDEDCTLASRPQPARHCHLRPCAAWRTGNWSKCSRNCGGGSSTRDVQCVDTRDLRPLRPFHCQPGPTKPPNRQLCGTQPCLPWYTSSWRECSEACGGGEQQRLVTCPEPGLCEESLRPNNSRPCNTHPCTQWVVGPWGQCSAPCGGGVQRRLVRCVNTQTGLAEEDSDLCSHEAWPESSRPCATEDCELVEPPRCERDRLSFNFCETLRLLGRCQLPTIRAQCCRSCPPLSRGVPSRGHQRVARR
Assay: TMT10 TAILS N-terminomics, HUVEC experiment (process replicates, trypsin/AspN digest)
Type: cell-based, human
Settings: HUVEC TAILS HC; log fold change of N-terminal peptide, Ad-mADAMTS7 WT over Luc
Excerpt: ADAMTS7 Expression, Cell Culture and Preparation of the Secreted Proteins—Full-length mouse Adamts7 1-1857 (Uniprot Q68SA9, WT or E373Q catalytic mutant) with a carboxyl terminal 3xFLAG tag was used to generate custom adenoviruses as previously described. Adeno-CMV-Luciferase (Ad-Luc) from Vector Biolabs was used as a negative control. Human Coronary Artery Smooth Muscle Cells (HCA-SMC) were obtained from Lonza and expanded in Lonza SmGM-2 media in 15 cm tissue culture plates. Twenty-four hours before media collection, near confluent plates were transduced with 50 MOI adenovirus and switched to Lonza Basal SM media with volumes of 20 ml per 15 cm plate. Expression of the Flag tagged ADAMTS7 was confirmed from the media using western blot and detected using the anti-Flag M2-HRP antibody (Sigma, A8592). Collected media was processed by adding protease inhibitors (1 mM EDTA and 1 mM PMSF) and clarified by 500 g×5 min spin at 4 C to pellet cell debris. Cell media supernatants were then passed through a 0.22 um filter and kept chilled. Processed media was then concentrated 50-100× using 3 kDa Centricon Plus-70 filter unit, spun at 3,500 g×60 min at 4 C. Approximately 10% of the processed, concentrated media was set aside for total secretome proteolytic analysis. The remaining 90% of the processed, concentrated media was buffer exchanged into 50 mM HEPES pH 8.0, 150 mM NaCl (2×50 ml) using the 3 kDa Centricon Plus-70 filter unit and concentrated to >2 mg/ml to serve as input for the TAILS experiment. Secretome and TAILS input samples were stored at −80° C.
For the first experiment, referred to as SMC1, 120 ml of media from 6×15 cm dishes was pooled from each condition (Luc, WT, EQ) and processed to produce three separate inputs for the TAILS experiment. Luc, WT and EQ inputs from the SMC1 experiment were each divided into triplicate 400 ug samples to generate technical replicate TAILS data. For the second experiment, referred to as SMC2, media was processed separately in triplicate for each condition (Luc1, Luc2, Luc3, WT1, WT2, WT3, EQ1, EQ2, EQ3) using 60 ml of media from 3×15 cm dishes for each process replicate. Inputs from the SMC2 experiment used process replicates of 300 ug each to generate TAILS data. The third experiment used input from cultured Human umbilical vein endothelial cells (HUVEC) from Lifeline Cell Technology grown in VascuLife Media and transduced in Lifeline Basal EC (+bFGF2 10 ng/ml). The HUVEC experiment used the same strategy as the SMC2 experiment, with 40 ml of media from 2×15 cm dishes for each process replicate and used 200 ug each to generate TAILS data. Inputs for process replicate experiments were restricted to the lowest concentration from the 9 parallel samples for SMC2 or HUVEC.
TMT10 isotopic labeling and negative selection of non-labeled peptides-Sample preparation was performed based on the TAILS protocol from the Overall lab with some modifications. From a single experiment, nine parallel protein samples in 50 mM HEPES pH 8.0, 150 mM NaCl were separately denatured with guanidinium chloride (Sigma, G4505) to reach a final concentration of 2.5M guanidinium chloride and 250 mM HEPES and incubated at 65° C. for 15 min. Reduction was achieved through addition of tris(2-carboxylethyl) phosphine (TCEP) at a final concentration of […] and incubated at 65° C. for 45 min. Alkylation reaction was performed with addition of iodoacetamide (IAA, Sigma, A3221) to a final concentration of 10 mM IAA for 15 min at room temperature in the dark. Following denaturation, reduction and alkylation steps, ten percent of each of the nine parallel protein samples was removed and combined to serve as a pooled reference. Isobaric tags were added to free amine groups using the TMT10plex Isobaric Mass Tagging Kit (ThermoFisher, 90113) with TMT channels randomly assigned to the nine samples and TMT 131 assigned to the pooled reference. […]

Row | Substance | logFC.mWT.over.Luc
1 | AEBP1_37 (FLEGFLSELEPEPR; listed as Homo sapiens) | 3.77
2 | EFEMP1_124 (AVAGPEMQTGR; listed as Homo sapiens) | 2.92
3 | FBN1_29 (LEAGNVKETR; listed as Homo sapiens) | 3.57
4 | FN1_36 (MVQPQSPVAVSQSKPGCYDNGKHYQINQQWER; listed as Homo sapiens) | 2.98
5 | FN1_886 (NQESTPVVIQQETTGTPR; listed as Homo sapiens) | 1.61
6 | FN1_1656 (SSSPVTGYR; listed as Homo sapiens) | 1.56
7 | IGFBP7_101 (AAGGPGVSGVCVCKSR; listed as Homo sapiens) | 1.86
8 | LTBP1_393 (LTATNFR; listed as Homo sapiens) | 3.14

The remaining lines, values ahead:

Row | logFC.mWT.over.Luc | Substance
9 | 3.29 | FLNA_1285 (LTQTGGPHVKAR; listed as Homo sapiens)
10 | 2.45 | FN1_40 (QSPVAVSQSKPGCYDNGKHYQINQQWER; listed as Homo sapiens)
11 | 3.43 | FN1_1143 (LTPGVEYVYTIQVLR; listed as Homo sapiens)
12 | 1.72 | HSPG2_2331 (ANLAYPAGSTQPIR; listed as Homo sapiens)
13 | 2.82 | LOXL2_37 (FQQPAPEYHQPQAPANVAKIQLR; listed as Homo sapiens)
14 | 3.38 | LOX_124 (WFQAGYSTSR; listed as Homo sapiens)
